These results are taken from article PMC5207774, “Atomic structures of fibrillar segments of hIAPP suggest tightly mated β-sheets are important for cytotoxicity” (eLife, 2017).

The data set concerns the molecule itself. Description: crystal structure; MicroED (electron diffraction in a cryo electron microscope, 200 kV) from 3D peptide crystals only a few hundred nanometers thick; self-association of the peptide in the crystal.

B1: hIAPP segment 15–25 WT (15-FLVHSSNNFGA-25) (peptide)
peptide: FLVHSSNNFGA
notes: human islet amyloid polypeptide (hIAPP), residues 15-25, wild type; numbers count on: the mature protein (37-residue hormone); Forms 3D nanocrystals and fibrils (striated ribbons); also called spine segment 15–25 WT; source: synthetic peptide: GenScript, greater than 98% purity
With B1, the binding result was “binds”.

B2: hIAPP segment 19–29 S20G (19-SGNNFGAILSS-29) (peptide)
peptide: SGNNFGAILSS
notes: human islet amyloid polypeptide (hIAPP), residues 19-29, with the early onset familial mutation S20G; numbers count on: the mature protein (37-residue hormone); Forms 3D nanocrystals and fibrils; the number of chains in the assembly is open-ended; also called spine segment 19–29 S20G; source: synthetic peptide: GenScript, greater than 98% purity
Take B2: the binding result is “binds”.
